Experimental data from article PMC4705532, ““Click on the bidirectional switch”: the aptasensor for simultaneous detection of lysozyme and ATP with high sensitivity and high selectivity”.

T1: papain (UniProt P00784 134-345)
T1 sequence: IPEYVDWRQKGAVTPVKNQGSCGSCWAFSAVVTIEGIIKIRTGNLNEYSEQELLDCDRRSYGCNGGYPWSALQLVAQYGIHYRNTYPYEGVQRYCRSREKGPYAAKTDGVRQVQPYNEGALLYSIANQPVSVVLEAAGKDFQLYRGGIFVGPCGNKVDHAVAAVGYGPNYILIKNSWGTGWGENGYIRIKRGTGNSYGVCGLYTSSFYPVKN


Key:
lysozyme [1] = molecular target: T2, lysozyme (UniProt P00698 19-147); assay: resonance light scattering; 10 mM Tris pH 7.4, 2.0 uM methyl violet (duplex sensor), target binding 20 min at 37 °C; salt not stated; details: protein: commercial
lysozyme [2] = molecular target: T2, lysozyme; assay: resonance light scattering; 2.0 uM methyl violet; lysozyme said to open the duplex and bind Lapt; 10 mM Tris pH 7.4, 2.0 uM methyl violet (duplex sensor), target binding 20 min at 37 °C; salt not stated; details: protein: commercial; blunt
papain = molecular target: T1, papain; assay: resonance light scattering; 2.0 uM methyl violet; 100-fold excess; 10 mM Tris pH 7.4, 2.0 uM methyl violet (duplex sensor), target binding 20 min at 37 °C; salt not stated; details: protein: commercial; blunt
thrombin = thrombin (UniProt P00734;P00734 328-363;364-622); assay: as above
ovalbumin = ovalbumin (UniProt P01012 2-386); assay: as above; details: protein: commercial; blunt
Chain of ovalbumin (P01012 2-386): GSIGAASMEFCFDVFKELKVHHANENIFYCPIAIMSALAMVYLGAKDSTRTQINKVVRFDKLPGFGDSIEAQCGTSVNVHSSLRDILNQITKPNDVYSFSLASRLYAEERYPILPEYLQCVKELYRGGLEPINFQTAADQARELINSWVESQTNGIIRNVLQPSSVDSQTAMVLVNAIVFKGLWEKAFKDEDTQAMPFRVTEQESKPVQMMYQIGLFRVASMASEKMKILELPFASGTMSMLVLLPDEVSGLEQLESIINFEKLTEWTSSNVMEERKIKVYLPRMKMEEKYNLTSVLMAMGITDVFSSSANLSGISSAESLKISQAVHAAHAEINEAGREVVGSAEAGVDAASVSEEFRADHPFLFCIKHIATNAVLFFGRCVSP

T2 sequence (P00698 19-147): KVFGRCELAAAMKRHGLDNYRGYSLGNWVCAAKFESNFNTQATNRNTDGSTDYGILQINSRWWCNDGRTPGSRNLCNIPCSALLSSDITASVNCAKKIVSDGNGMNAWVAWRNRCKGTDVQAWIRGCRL

| Binder | binding result (lysozyme [1]) | binding result (lysozyme [2]) | binding result (papain) | binding result (thrombin) | binding result (ovalbumin) |
| --- | --- | --- | --- | --- | --- |
| Lapt (lysozyme aptamer) (ssDNA) DNA: ATCTACGAATTCATCAGGGCTAAAGAGTGCAGAGTTACTTAGACCTTCCTCCGCAATACTCCCCCAGGTT | binds | – | – | – | – |
| Lapt≈Aapt duplex (with methyl violet) (dsDNA) DNA 1: ATCTACGAATTCATCAGGGCTAAAGAGTGCAGAGTTACTTAGACCTTCCTCCGCAATACTCCCCCAGGTT DNA 2: AACCTGGGGGAGTATTGCGGAGGAAGGTCTAAGTAACTCTGCACTCTTTAGCCCTGATGAATTCGTAGAT | – | binds | no binding | no binding | no binding |
